Measurements: patent US7902341B2, “Methods and compositions for modulating somatolactogenic functions” (Trustees of the University of Pennsylvania, priority 1999, dated 2011)

B1: Myc-tagged PRL: recombinant human PRL with myc-tag expressed in Drosophila S2 cells (protein)
chain: LPICPGGAARCQVTLRDLFDRAVVLSHYIHNLSSEMFSEFDKRYTHGRGFITKAINSCHTSSLATPEDKEQAQQMNQKDFLSLIVSILRSWNEPLYHLVTEVRGMQEAPEAILSKAVEIEEQTKRLLEGMELIVSQVHPETKENEIYPVWSGLPSLQMADEESRLSAYYNLLHCLRRDSHKIDNYLKLLKCRIIHNNNC
modifications: left off: small tags and cut ends
notes: recombinant human PRL with myc-tag expressed in Drosophila S2 cells
B2: PRL: human prolactin, pituitary isolated or recombinant (protein)
chain: B1 chain
modifications: left off: small tags and cut ends
notes: human prolactin, pituitary isolated or recombinant

Test system: Nb2 cells
Assay: Nb2 cell proliferation (3H-thymidine) to assess CypB modulation of somatolactogenic action
Format: cell-based, rat
Protocol: The effect of exogenous CypB on PRL-driven proliferation was examined with the rat Nb2 T-cell and the human T47D breast cancer line. […] This dose-dependent biphasic effect was most prominent at physiologic concentrations (5-10 mM) of CypB and PRL (50 pM) found in human serum. […] To determine the effect of CypB on cellular growth driven by the larger family of cytokines, to which PRL belongs, proliferation driven by interleukin-2 (IL-2), IL-3 and GH was examined.
Nb2-cells (5×10^4; PRL-dependent, rat T-lymphoma) were plated in each well of 96 well plates in a defined DMEM-serum free medium (0.1 mM 2-mercaptoethanol, 1% penicillin/streptomycin, and 1% ITS+(Calbiochem)). Cells were rested for 24 hours at 37° C. in this defined medium in the absence of PRL before the addition of 5-500 pM PRL (either as human pituitary isolated PRL, National Hormone and Pituitary Program, NIDDK; recombinant human PRL from E. coli, Genzyme; or recombinant human PRL from Drosophila S2 cells) alone or premixed with 1-2000 fold excess of purified CypB. Parallel studies were performed using human pituitary-derived GH (National Hormone and Pituitary Program, NIDDK). Cultures were incubated for 48 hours at 37° C. and proliferation was evaluated by the addition of 0.5 μCi of ^3H-thymidine for four hours followed by harvesting and scintillography. […]

Molecule	bioactivity in Nb2 bioassays (protein secreted by Drosophila S2 cells)	PRL concentration at which the sigmoid Nb2 growth curve plateaus (Nb2 cells stimulated with PRL alone)
B1	functionally bioactive	–
B2	–	approximately 2 ng PRL/ml
